T1: FcγRIIa H (FcγRIIa, type H allotype, His at position 131), extracellular domain with C-terminal His tag (human, UniProt P12318 34-217)
T1 construct: extracellular domain; Soluble receptor expressed in FreeStyle293 cells; analyte in Biacore; also called FcgRIIa H; 2aH; not shown: C-terminal His tag
T1 sequence (looked up): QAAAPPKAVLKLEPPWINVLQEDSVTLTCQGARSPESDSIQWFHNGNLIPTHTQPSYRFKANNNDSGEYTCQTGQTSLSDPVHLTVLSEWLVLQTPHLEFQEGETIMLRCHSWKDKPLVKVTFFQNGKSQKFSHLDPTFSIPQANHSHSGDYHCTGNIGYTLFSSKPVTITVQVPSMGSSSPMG

T2: FcγRIIb, extracellular domain with C-terminal His tag (human, UniProt P31994 43-217)
T2 construct: extracellular domain; Soluble receptor expressed in FreeStyle293 cells; analyte in Biacore; also called FcgRIIb; 2b; not shown: C-terminal His tag
T2 sequence (looked up): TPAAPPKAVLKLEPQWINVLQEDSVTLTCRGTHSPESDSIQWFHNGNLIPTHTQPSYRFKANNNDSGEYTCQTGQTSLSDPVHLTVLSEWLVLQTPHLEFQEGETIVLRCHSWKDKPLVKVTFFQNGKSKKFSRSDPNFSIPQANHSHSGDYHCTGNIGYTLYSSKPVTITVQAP

B1: GpH7-A5/GpH7-B3 variant E269_08L/GpL16-k0 (antibody, human IgG1, kappa)
heavy 1: not shown
heavy 2: not shown
light: DIVMTQSPLSLPVTPGEPASISCQASESLVHSNRNTYLHWYLQKPGQSPQLLIYKVSNRFSGVPDRFSGSGSGTDFTLKISRVEAEDVGVYYCSQNTHVPPTFGQGTKVEIERTVAAPSVFIFPPSDEQLKSGTASVVCLLNNFYPREAKVQWKVDNALQSGNSQESVTEQDSKDSTYSLSSTLTLSKADYEKHKVYACEVTHQGLSSPVTKSFNRGEC
notes: Heterodimerized IgG1; mutation only in the GpH7-B3 chain; also called He Ab
B2: GpH7-A5/GpH7-B3 variant Y300_06M/GpL16-k0 (antibody, human IgG1, kappa)
heavy 1: not shown
heavy 2: not shown
light: B1 light
notes: as for B1
B3: GpH7-A5/GpH7-B3 variant Q295_16H/GpL16-k0 (antibody, human IgG1, kappa)
heavy 1: not shown
heavy 2: not shown
light: B1 light
notes: as for B1
B4: GpH7-A5/GpH7-B3 variant Y300_01G/GpL16-k0 (antibody, human IgG1, kappa)
heavy 1: not shown
heavy 2: not shown
light: B1 light
notes: as for B1
B5: GpH7-A5/GpH7-B3 variant S298_10E/GpL16-k0 (antibody, human IgG1, kappa)
heavy 1: not shown
heavy 2: not shown
light: B1 light
notes: as for B1
B6: GpH7-A5/GpH7-B3 variant Q295_12R/GpL16-k0 (antibody, human IgG1, kappa)
heavy 1: not shown
heavy 2: not shown
light: B1 light
notes: as for B1
B7: GpH7-A5/GpH7-B3 variant P271_20W/GpL16-k0 (antibody, human IgG1, kappa)
heavy 1: not shown
heavy 2: not shown
light: B1 light
notes: as for B1
B8: GpH7-A5/GpH7-B3 variant E269_20W/GpL16-k0 (antibody, human IgG1, kappa)
heavy 1: not shown
heavy 2: not shown
light: B1 light
notes: as for B1
B9: GpH7-A5/GpH7-B3 variant S298_16H/GpL16-k0 (antibody, human IgG1, kappa)
heavy 1: not shown
heavy 2: not shown
light: B1 light
notes: as for B1
B10: GpH7-A5/GpH7-B3 variant Q295_11K/GpL16-k0 (antibody, human IgG1, kappa)
heavy 1: not shown
heavy 2: not shown
light: B1 light
notes: as for B1
B11: GpH7-A5/GpH7-B3 variant Y300_02A/GpL16-k0 (antibody, human IgG1, kappa)
heavy 1: not shown
heavy 2: not shown
light: B1 light
notes: as for B1
B12: GpH7-A5/GpH7-B3 variant E269_19Q/GpL16-k0 (antibody, human IgG1, kappa)
heavy 1: not shown
heavy 2: not shown
light: B1 light
notes: as for B1
B13: GpH7-A5/GpH7-B3 variant E269_14T/GpL16-k0 (antibody, human IgG1, kappa)
heavy 1: not shown
heavy 2: not shown
light: B1 light
notes: as for B1
B14: GpH7-A5/GpH7-B3 variant E269_02A/GpL16-k0 (antibody, human IgG1, kappa)
heavy 1: not shown
heavy 2: not shown
light: B1 light
notes: as for B1
B15: GpH7-A5/GpH7-B3 variant E269_15Y/GpL16-k0 (antibody, human IgG1, kappa)
heavy 1: not shown
heavy 2: not shown
light: B1 light
notes: as for B1
B16: GpH7-A5/GpH7-B3 variant Q295_03V/GpL16-k0 (antibody, human IgG1, kappa)
heavy 1: not shown
heavy 2: not shown
light: B1 light
notes: as for B1
B17: GpH7-A5/GpH7-B3 variant Y300_03V/GpL16-k0 (antibody, human IgG1, kappa)
heavy 1: not shown
heavy 2: not shown
light: B1 light
notes: as for B1
B18: GpH7-A5/GpH7-B3 variant E269_06M/GpL16-k0 (antibody, human IgG1, kappa)
heavy 1: not shown
heavy 2: not shown
light: B1 light
notes: as for B1
B19: GpH7-A5/GpH7-B3 variant E269_07I/GpL16-k0 (antibody, human IgG1, kappa)
heavy 1: not shown
heavy 2: not shown
light: B1 light
notes: as for B1
B20: GpH7-A5/GpH7-B3 variant S298_18N/GpL16-k0 (antibody, human IgG1, kappa)
heavy 1: not shown
heavy 2: not shown
light: B1 light
notes: as for B1

target: T1, FcγRIIa H (FcγRIIa, type H allotype, …); experiment: SPR (Biacore), captured antibody, FcγR as analyte

He/Con_2aH | Binder
67.4 relative, GpH7-A5/GpH7-B3/GpL16-k0 = 100 | B1
105 relative, GpH7-A5/GpH7-B3/GpL16-k0 = 100 | B2
78.6 relative, GpH7-A5/GpH7-B3/GpL16-k0 = 100 | B3
74.4 relative, GpH7-A5/GpH7-B3/GpL16-k0 = 100 | B4
58 relative, GpH7-A5/GpH7-B3/GpL16-k0 = 100 | B5
84.1 relative, GpH7-A5/GpH7-B3/GpL16-k0 = 100 | B6
77.4 relative, GpH7-A5/GpH7-B3/GpL16-k0 = 100 | B7
60.9 relative, GpH7-A5/GpH7-B3/GpL16-k0 = 100 | B8
82.1 relative, GpH7-A5/GpH7-B3/GpL16-k0 = 100 | B9
89.4 relative, GpH7-A5/GpH7-B3/GpL16-k0 = 100 | B10
93.5 relative, GpH7-A5/GpH7-B3/GpL16-k0 = 100 | B11
80.2 relative, GpH7-A5/GpH7-B3/GpL16-k0 = 100 | B12
69.6 relative, GpH7-A5/GpH7-B3/GpL16-k0 = 100 | B13
77.8 relative, GpH7-A5/GpH7-B3/GpL16-k0 = 100 | B14
70.4 relative, GpH7-A5/GpH7-B3/GpL16-k0 = 100 | B15
92 relative, GpH7-A5/GpH7-B3/GpL16-k0 = 100 | B16
98 relative, GpH7-A5/GpH7-B3/GpL16-k0 = 100 | B17
73.6 relative, GpH7-A5/GpH7-B3/GpL16-k0 = 100 | B18
66.6 relative, GpH7-A5/GpH7-B3/GpL16-k0 = 100 | B19
61.6 relative, GpH7-A5/GpH7-B3/GpL16-k0 = 100 | B20

target: T2, FcγRIIb, extracellular domain with …; experiment: SPR (Biacore), captured antibody, FcγR as analyte

He/Con_2b | Binder
42.9 relative, GpH7-A5/GpH7-B3/GpL16-k0 = 100 | B1
84.3 relative, GpH7-A5/GpH7-B3/GpL16-k0 = 100 | B2
62.7 relative, GpH7-A5/GpH7-B3/GpL16-k0 = 100 | B3
48.4 relative, GpH7-A5/GpH7-B3/GpL16-k0 = 100 | B4
47.6 relative, GpH7-A5/GpH7-B3/GpL16-k0 = 100 | B5
65.2 relative, GpH7-A5/GpH7-B3/GpL16-k0 = 100 | B6
58.1 relative, GpH7-A5/GpH7-B3/GpL16-k0 = 100 | B7
42.5 relative, GpH7-A5/GpH7-B3/GpL16-k0 = 100 | B8
63.5 relative, GpH7-A5/GpH7-B3/GpL16-k0 = 100 | B9
70.4 relative, GpH7-A5/GpH7-B3/GpL16-k0 = 100 | B10
69.2 relative, GpH7-A5/GpH7-B3/GpL16-k0 = 100 | B11
44.3 relative, GpH7-A5/GpH7-B3/GpL16-k0 = 100 | B12
50.6 relative, GpH7-A5/GpH7-B3/GpL16-k0 = 100 | B13
49.9 relative, GpH7-A5/GpH7-B3/GpL16-k0 = 100 | B14
44.7 relative, GpH7-A5/GpH7-B3/GpL16-k0 = 100 | B15
75.7 relative, GpH7-A5/GpH7-B3/GpL16-k0 = 100 | B16
73.9 relative, GpH7-A5/GpH7-B3/GpL16-k0 = 100 | B17
46.7 relative, GpH7-A5/GpH7-B3/GpL16-k0 = 100 | B18
43.9 relative, GpH7-A5/GpH7-B3/GpL16-k0 = 100 | B19
48.1 relative, GpH7-A5/GpH7-B3/GpL16-k0 = 100 | B20

target: T1, FcγRIIa H (FcγRIIa, type H allotype, …); experiment: ratio of He/Con_2aH to He/Con_2b (FcγRIIa H over FcγRIIb), SPR

He_2aH/2b (IIaH/IIb) | Binder
1.57 | B1
1.24 | B2
1.25 | B3
1.54 | B4
1.22 | B5
1.29 | B6
1.33 | B7
1.43 | B8
1.29 | B9
1.27 | B10
1.35 | B11
1.81 | B12
1.37 | B13
1.56 | B14
1.57 | B15
1.22 | B16
1.33 | B17
1.58 | B18
1.52 | B19
1.28 | B20

From US20180155451A1 (published 2018)
